Results taken from US20220340660A1 (Merck Sharp & Dohme, published 2022).
Blank lines part the entries; values can stand above or below the binder they belong to.

Key:
[1] = target: T1, recombinant mouse TIGIT protein (mouse, UniProt P86176 29-148, limits assumed); assay: ELISA, plate coated with 1 µg/ml recombinant mouse TIGIT protein (FIG. 1B)
T1 construct: also called mTIGIT recombinant protein; mTIGIT
T1 sequence (looked up): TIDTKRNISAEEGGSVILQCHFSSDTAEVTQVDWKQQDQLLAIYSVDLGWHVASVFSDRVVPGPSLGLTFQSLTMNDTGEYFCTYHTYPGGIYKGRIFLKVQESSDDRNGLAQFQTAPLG
Procedure: (§1) FIG. 1A and FIG. 1B are graphs showing identification and characterization of anti-mouse TIGIT monoclonal antibody 18G10. FIG. 1A is a line graph showing binding of anti-mouse TIGIT, clone 18G10, was measured by a cell-based ELISA using mouse TIGIT-overexpressing CHO cells (mTIGIT/CHO). 18G10 was serially diluted as indicated. After 30 min. of incubation, unbound 18G10 antibody was washed out, and the bound 18G10 antibodies were detected using an anti-mouse IgG reagent (closed circles). When the 18G10 was bound in the indicated serial dilutions on mTIGIT/CHO, 8 μg/ml recombinant mouse CD155:hIgG1-Fc (rmCD155) was added to the plate in order to verify whether 18G10 blocked the interaction of rmCD155 with mTIGIT/CHO. After 40 minutes of incubation, unbound recombinant CD155 was washed out, and the bound recombinant CD155 was detected by anti-human IgG reagent (open circles). […] Chimeric anti-TIGIT (18G10):mIgG2a, anti-TIGHT (18G10):mIgG1-[D265A], and isotype controls with mIgG2a or mIgG1-[D265A] isotype were loaded to ELISA plates coated with 1 μg/ml of (left panel) recombinant mouse TIGIT protein or (right panel) goat anti-mouse IgG-Fc antibody. Bound antibodies to each plate were detected. Note: mIgG1* indicates mIgG1-[D265A].

[2] = target: T2, mouse TIGIT on mouse TIGIT-overexpressing CHO cells (mouse, UniProt P86176 29-249); assay: cell-based ELISA on mTIGIT/CHO cells, detected by anti-mouse IgG
T2 construct: whole, on cells; also called mTIGIT/CHO; mTIGIT
T2 sequence (looked up): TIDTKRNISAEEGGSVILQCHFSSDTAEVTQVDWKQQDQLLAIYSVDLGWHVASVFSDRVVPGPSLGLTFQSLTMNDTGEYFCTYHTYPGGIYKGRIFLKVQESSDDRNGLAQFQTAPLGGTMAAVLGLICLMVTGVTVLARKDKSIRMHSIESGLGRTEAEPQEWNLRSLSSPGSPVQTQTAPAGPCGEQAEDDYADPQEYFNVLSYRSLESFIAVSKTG
Procedure: as §1

binding result [1]: binds
B1: chimeric anti-TIGIT (18G10):mIgG2a (antibody)
heavy: QVQLMESGPGLVQPSQTLSLTCTVSGFPLTSYTVHWVRQPPGKGLEWIGAIWSSGSTDYNSALKSRLNINRDSSKSQVFLKMNSLQTEDTAIYFCTKSGWAFFDYWGQGVMVTVSSAKTTAPSVYPLAPVCGDTTGSSVTLGCLVKGYFPEPVTLTWNSGSLSSGVHTFPAVLQSDLYTLSSSVTVTSSTWPSQSITCNVAHPASSTKVDKKIEPRGPTIKPCPPCKCPAPNLLGGPSVFIFPPKIKDVLMISLSPIVTCVVVDVSEDDPDVQISWFVNNVEVHTAQTQTHREDYNSTLRVVSALPIQHQDWMSGKEFKCKVNNKDLPAPIERTISKPKGSVRAPQVYVLPPPEEEMTKKQVTLTCMVTDFMPEDIYVEWTNNGKTELNYKNTEPVLDSDGSYFMYSKLRVEKKNWVERNSYSCSVVHEGLHNHHTTKSFSRTPGK
light: DIQMTQSPSLLSASVGDRVTLNCIASQNIYKSLAWYQLKLGEAPKLLIYNANSLQAGIPSRFSGSGSGTDFALTISGLQPEDVATYFCQQYSGGYTFGAGTKLELKRADAAPTVSIFPPSSEQLTSGGASVVCFLNNFYPKDINVKWKIDGSERQNGVLNSWTDQDSKDSTYSMSSTLTLTKDEYERHNSYTCEATHKTSTSPIVKSFNRNEC
notes: Rat 18G10 variable domains on an intact mouse IgG2a backbone; also called anti-TIGIT:mIgG2a

binding result [1]: binds
B2: chimeric anti-TIGIT (18G10):mIgG1-[D265A] (antibody)
heavy: QVQLMESGPGLVQPSQTLSLTCTVSGFPLTSYTVHWVRQPPGKGLEWIGAIWSSGSTDYNSALKSRLNINRDSSKSQVFLKMNSLQTEDTAIYFCTKSGWAFFDYWGQGVMVTVSSAKTTPPSVYPLAPGSAAQTNSMVTLGCLVKGYFPEPVTVTWNSGSLSSGVHTFPAVLQSDLYTLSSSVTVPSSTWPSETVTCNVAHPASSTKVDKKIVPRDCGCKPCICTVPEVSSVFIFPPKPKDVLTITLTPKVTCVVVAISKDDPEVQFSWFVDDVEVHTAQTQPREEQFNSTFRSVSELPIMHQDWLNGKEFKCRVNSAAFPAPIEKTISKTKGRPKAPQVYTIPPPKEQMAKDKVSLTCMITDFFPEDITVEWQWNGQPAENYKNTQPIMDTDGSYFVYSKLNVQKSNWEAGNTFTCSVLHEGLHNHHTEKSLSHSPGK
light: B1 light
notes: Rat 18G10 variable domains on a mouse IgG1 backbone with D265A; also called anti-TIGIT:mIgG1*

binding result [2]: binds
B3: anti-mouse TIGIT monoclonal antibody 18G10 (antibody, V domains shown)
VH: QVQLMESGPGLVQPSQTLSLTCTVSGFPLTSYTVHWVRQPPGKGLEWIGAIWSSGSTDYNSALKSRLNINRDSSKSQVFLKMNSLQTEDTAIYFCTKSGWAFFDYWGQGVMVTVSS
VL: DIQMTQSPSLLSASVGDRVTLNCIASQNIYKSLAWYQLKLGEAPKLLIYNANSLQAGIPSRFSGSGSGTDFALTISGLQPEDVATYFCQQYSGGYTFGAGTKLELK
notes: also called anti-mouse TIGIT, clone 18G10; rat anti-mouse TIGIT (mTIGIT) antibody clone 18G10
